Test results: patent US20190077860A1 (EISAI R AND D MANAGEMENT, published 2019)
Changes are numbered by the printed parent chain. Names and notes keep the numbering of the source.

B1: humanized antibody No. 76 (antibody, human IgG1, kappa)
heavy: QVQLVQSGSELKKPGASVKVSCKASGYTFTDYSMHWVRQAPGQGLKWMGWINTETGEPTYAQGFTGRFVFSLDTSVSTAYLQISSLKAEDTAVYYCARIPLYYYGSRYWYFDVWGQGTTVTVSSASTKGPSVFPLAPSSKSTSGGTAALGCLVKDYFPEPVTVSWNSGALTSGVHTFPAVLQSSGLYSLSSVVTVPSSSLGTQTYICNVNHKPSNTKVDKRVEPKSCDKTHTCPPCPAPPAAAPSVFLFPPKPKDTLMISRTPEVTCVVVDVSHEDPEVQFNWYVDGVEVHNAKTKPREEQFNSTFRVVSVLTVVHQDWLNGKEYKCKVSNKGLPAPIEKTISKTKGQPREPQVYTLPPSREEMTKNQVSLTCLVKGFYPSDIAVEWESNGQPENNYKTTPPMLDSDGSFFLYSKLTVDKSRWQQGNVFSCSVMHEALHNHYTQKSLSLSPG
light: DIQMTQSPSSLSASVGDRVTITCRASENIYRNLAWYQQKPGKAPKLLVYAATNLADGVPSRFSGSGSGTDYTLTISSLQPEDFATYYCQHFWGTPWTFGQGTKVEIKRTVAAPSVFIFPPSDEQLKSGTASVVCLLNNFYPREAKVQWKVDNALQSGNSQESVTEQDSKDSTYSLSSTLTLSKADYEKHKVYACEVTHQGLSSPVTKSFNRGEC
notes: human Ig kappa; also called L1-4/HA2
B2: humanized antibody No. 81 (antibody, human IgG1, kappa)
heavy: B1 heavy with K46E
light: B1 light with V48L, P80S
notes: human Ig kappa; also called L1-5/HA1
B3: humanized antibody No. 75 (antibody, human IgG1, kappa)
heavy: B1 heavy with K46E
light: B1 light
notes: constant region: human IgG1 CH1 and hinge, human IgG2 CH2 and CH3 with V234A, G237A, no C-terminal Lys; human Ig kappa; also called L1-4/HA1
B4: humanized antibody No. 77 (antibody, human IgG1, kappa)
heavy: B1 heavy with K46E, Q62D, G63D, T65K
light: B1 light
notes: human Ig kappa; also called L1-4/HK1
B5: humanized antibody No. 84 (antibody, human IgG1, kappa)
heavy: B1 heavy with K46E, Q62D, G63D, T65K
light: B1 light with V48L, P80S
notes: human Ig kappa; also called L1-5/HK1
B6: humanized antibody No. 85 (antibody, human IgG1, kappa)
heavy: B1 heavy with Q62D, G63D, T65K
light: B1 light with V48L, P80S
notes: human Ig kappa; also called L1-5/HK2
B7: humanized antibody No. 67 (antibody, human IgG1, kappa)
heavy: B1 heavy with V2I
light: B1 light
notes: human Ig kappa; also called L1-4/HA4
B8: humanized antibody No. 78 (antibody, human IgG1, kappa)
heavy: B1 heavy with Q62D, G63D, T65K
light: B1 light
notes: human Ig kappa; also called L1-4/HK2
B9: humanized antibody No. 83 (antibody, human IgG1, kappa)
heavy: B1 heavy with V2I
light: B1 light with V48L, P80S
notes: human Ig kappa; also called L1-5/HA4
B10: humanized antibody No. 82 (antibody, human IgG1, kappa)
heavy: B1 heavy
light: B1 light with V48L, P80S
notes: human Ig kappa; also called L1-5/HA2
B11: humanized antibody No. 69 (antibody, human IgG1, kappa)
heavy: B1 heavy with V2I, Q62D, G63D, T65K
light: B1 light
notes: human Ig kappa; also called L1-4/HK4

target: T1, human EphA2 extracellular region-SEAP-His protein (human, UniProt P29317 24-537); test: ELISA
T1 construct: extracellular domain; also called hEphA2-SEAP-His
T1 sequence (P29317 24-537): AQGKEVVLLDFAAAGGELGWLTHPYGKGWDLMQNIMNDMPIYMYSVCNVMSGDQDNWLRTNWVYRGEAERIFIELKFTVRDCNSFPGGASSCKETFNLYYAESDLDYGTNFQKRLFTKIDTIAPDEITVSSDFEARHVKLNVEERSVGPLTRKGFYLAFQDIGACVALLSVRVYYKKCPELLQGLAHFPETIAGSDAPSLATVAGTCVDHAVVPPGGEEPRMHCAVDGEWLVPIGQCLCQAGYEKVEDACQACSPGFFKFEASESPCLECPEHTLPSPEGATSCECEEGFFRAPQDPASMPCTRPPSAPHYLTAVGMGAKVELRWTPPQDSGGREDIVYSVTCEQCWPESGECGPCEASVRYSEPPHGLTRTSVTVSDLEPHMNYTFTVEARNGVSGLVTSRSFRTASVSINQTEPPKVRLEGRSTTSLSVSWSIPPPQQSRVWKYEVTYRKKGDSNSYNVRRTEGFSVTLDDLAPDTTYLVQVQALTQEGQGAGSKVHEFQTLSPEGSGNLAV

| Binder | A450 as % of hEphA4-SEAP-His [%] |
| --- | --- |
| B1 | 4.8 |
| B2 | 4.8 |
| B3 | 4.6 |
| B4 | 4.5 |
| B5 | 4.9 |
| B6 | 5.1 |
| B7 | 4.6 |
| B8 | 4.9 |
| B9 | 5.8 |
| B10 | 5.4 |
| B11 | 5.5 |

target: T2, human EphA8 extracellular region-SEAP-His protein (human, UniProt P29322 28-542); test: ELISA
T2 construct: extracellular domain; also called hEphA8-SEAP-His
T2 sequence (looked up): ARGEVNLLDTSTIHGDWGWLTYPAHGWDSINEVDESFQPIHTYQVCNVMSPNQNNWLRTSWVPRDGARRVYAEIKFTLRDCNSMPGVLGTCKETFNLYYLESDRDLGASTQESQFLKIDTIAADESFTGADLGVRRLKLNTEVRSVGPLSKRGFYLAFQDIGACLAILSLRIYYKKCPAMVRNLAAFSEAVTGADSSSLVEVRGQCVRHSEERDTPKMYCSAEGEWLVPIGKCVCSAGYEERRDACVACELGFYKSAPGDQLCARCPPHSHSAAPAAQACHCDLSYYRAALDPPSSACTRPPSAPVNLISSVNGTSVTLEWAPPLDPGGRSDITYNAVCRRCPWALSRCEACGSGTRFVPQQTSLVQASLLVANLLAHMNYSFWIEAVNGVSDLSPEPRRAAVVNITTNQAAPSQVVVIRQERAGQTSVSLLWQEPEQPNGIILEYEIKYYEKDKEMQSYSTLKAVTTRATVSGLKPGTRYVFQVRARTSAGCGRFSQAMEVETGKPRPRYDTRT

| Binder | A450 as % of hEphA4-SEAP-His [%] |
| --- | --- |
| B1 | 5.5 |
| B2 | 5.2 |
| B3 | 4.8 |
| B4 | 4.8 |
| B5 | 5.3 |
| B6 | 5.5 |
| B7 | 4.7 |
| B8 | 5.4 |
| B9 | 6 |
| B10 | 5.8 |
| B11 | 5.5 |

target: T3, human EphA5 extracellular region-SEAP-His protein (human, UniProt P54756 25-573); test: ELISA
T3 construct: extracellular domain; also called hEphA5-SEAP-His
T3 sequence (P54756 25-573): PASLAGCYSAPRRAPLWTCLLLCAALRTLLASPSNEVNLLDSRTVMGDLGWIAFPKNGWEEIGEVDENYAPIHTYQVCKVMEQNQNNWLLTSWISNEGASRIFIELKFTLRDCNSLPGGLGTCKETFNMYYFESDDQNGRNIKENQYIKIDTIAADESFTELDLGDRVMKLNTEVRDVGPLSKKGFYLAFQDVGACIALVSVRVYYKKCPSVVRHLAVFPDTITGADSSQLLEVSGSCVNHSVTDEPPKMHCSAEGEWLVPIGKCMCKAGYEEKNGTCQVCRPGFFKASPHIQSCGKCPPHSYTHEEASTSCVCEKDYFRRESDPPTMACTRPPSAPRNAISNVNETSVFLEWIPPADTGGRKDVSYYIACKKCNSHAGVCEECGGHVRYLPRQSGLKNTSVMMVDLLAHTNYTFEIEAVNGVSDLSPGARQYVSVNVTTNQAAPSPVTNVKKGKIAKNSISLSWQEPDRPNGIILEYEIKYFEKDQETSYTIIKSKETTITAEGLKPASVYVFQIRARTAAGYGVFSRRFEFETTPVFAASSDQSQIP

| Binder | A450 as % of hEphA4-SEAP-His [%] |
| --- | --- |
| B1 | 5.3 |
| B2 | 4.9 |
| B3 | 4.7 |
| B4 | 4.4 |
| B5 | 5 |
| B6 | 5 |
| B7 | 4.8 |
| B8 | 5.1 |
| B9 | 5.8 |
| B10 | 6.5 |
| B11 | 5.6 |

target: T4, human EphB4 extracellular region-SEAP-His protein (human, UniProt P54760 16-539); test: ELISA
T4 construct: extracellular domain; also called hEphB4-SEAP-His
T4 sequence (looked up): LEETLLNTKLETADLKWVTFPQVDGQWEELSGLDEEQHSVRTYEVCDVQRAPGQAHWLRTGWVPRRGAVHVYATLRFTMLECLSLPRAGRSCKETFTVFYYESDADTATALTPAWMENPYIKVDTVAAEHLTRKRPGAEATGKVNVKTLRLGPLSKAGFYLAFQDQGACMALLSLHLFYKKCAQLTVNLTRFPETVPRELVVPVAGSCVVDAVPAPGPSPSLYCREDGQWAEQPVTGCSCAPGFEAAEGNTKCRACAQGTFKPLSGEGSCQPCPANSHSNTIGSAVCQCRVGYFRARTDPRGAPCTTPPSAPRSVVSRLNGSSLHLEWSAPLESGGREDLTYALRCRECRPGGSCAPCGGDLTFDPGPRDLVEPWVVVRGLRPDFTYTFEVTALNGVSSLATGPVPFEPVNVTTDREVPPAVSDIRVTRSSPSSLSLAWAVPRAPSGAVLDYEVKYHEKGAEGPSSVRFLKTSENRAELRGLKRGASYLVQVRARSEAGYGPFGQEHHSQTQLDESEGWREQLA

| Binder | A450 as % of hEphA4-SEAP-His [%] |
| --- | --- |
| B1 | 5.2 |
| B2 | 5 |
| B3 | 4.6 |
| B4 | 4.5 |
| B5 | 5.4 |
| B6 | 5.2 |
| B7 | 4.9 |
| B8 | 5.1 |
| B9 | 5.7 |
| B10 | 5.7 |
| B11 | 5.5 |

target: T5, human EphA3 extracellular region-SEAP-His protein (human, UniProt P29320 21-541); test: ELISA
T5 construct: extracellular domain; also called hEphA3-SEAP-His
T5 sequence (looked up): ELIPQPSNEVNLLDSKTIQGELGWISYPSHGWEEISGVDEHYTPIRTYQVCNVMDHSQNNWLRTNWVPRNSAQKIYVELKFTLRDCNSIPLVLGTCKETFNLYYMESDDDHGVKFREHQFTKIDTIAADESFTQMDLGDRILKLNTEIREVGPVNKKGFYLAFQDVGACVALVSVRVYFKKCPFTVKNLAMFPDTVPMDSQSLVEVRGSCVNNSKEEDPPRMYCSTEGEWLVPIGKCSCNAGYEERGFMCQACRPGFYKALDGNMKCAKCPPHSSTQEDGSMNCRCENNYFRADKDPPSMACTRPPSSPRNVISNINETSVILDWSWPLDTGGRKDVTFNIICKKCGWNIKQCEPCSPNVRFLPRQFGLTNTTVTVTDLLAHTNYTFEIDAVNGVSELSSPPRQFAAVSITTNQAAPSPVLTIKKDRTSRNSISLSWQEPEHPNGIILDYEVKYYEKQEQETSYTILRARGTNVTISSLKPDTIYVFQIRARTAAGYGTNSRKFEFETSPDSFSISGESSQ

| Binder | A450 as % of hEphA4-SEAP-His [%] |
| --- | --- |
| B1 | 4.9 |
| B2 | 5 |
| B3 | 4.8 |
| B4 | 4.5 |
| B5 | 4.9 |
| B6 | 5.1 |
| B7 | 4.8 |
| B8 | 5.1 |
| B9 | 5.7 |
| B10 | 5.4 |
| B11 | 5.4 |

target: T6, human EphA7 extracellular region-SEAP-His protein (human, UniProt Q15375 28-555); test: ELISA
T6 construct: extracellular domain; also called hEphA7-SEAP-His
T6 sequence (looked up): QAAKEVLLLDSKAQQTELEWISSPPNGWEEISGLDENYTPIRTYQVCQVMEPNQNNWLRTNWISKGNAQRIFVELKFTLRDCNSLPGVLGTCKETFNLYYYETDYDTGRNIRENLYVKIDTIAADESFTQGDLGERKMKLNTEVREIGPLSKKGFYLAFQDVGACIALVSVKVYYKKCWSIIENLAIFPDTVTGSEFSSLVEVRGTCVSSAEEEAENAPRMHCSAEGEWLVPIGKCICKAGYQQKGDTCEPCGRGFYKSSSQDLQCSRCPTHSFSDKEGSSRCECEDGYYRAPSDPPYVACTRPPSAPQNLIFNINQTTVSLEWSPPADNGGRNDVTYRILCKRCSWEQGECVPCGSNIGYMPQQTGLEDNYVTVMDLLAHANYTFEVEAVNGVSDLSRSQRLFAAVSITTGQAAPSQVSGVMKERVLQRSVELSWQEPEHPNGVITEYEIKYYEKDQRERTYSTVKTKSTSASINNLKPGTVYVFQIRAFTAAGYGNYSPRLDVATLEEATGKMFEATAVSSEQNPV

| Binder | A450 as % of hEphA4-SEAP-His [%] |
| --- | --- |
| B1 | 4.8 |
| B2 | 5.2 |
| B3 | 4.7 |
| B4 | 4.3 |
| B5 | 4.8 |
| B6 | 4.8 |
| B7 | 4.7 |
| B8 | 5 |
| B9 | 5.5 |
| B10 | 5.4 |
| B11 | 5.3 |
